± gives the uncertainty stated by the source.
Assay: protein stability index of a GFP-peptide fusion (yeast GPS) (PSI 1-4); higher = more stable; sorted into four equal gates, so the index is relative within each strain
Outline: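 Tiled 17-residue yeast protein peptides were fused downstream of GFP in a plasmid that also expresses Cherry, and the pooled library was carried in yeast. Mid-log cultures in leucine-free medium were sorted into four equal gates by GFP/Cherry fluorescence ratio, and plasmids from each gate were PCR-amplified and Illumina-sequenced, with reads assigned to strains by barcodes. The protein stability index for each peptide was each gate's read frequency times its gate number, summed.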

| Sequence | protein stability index (doa10∆) | protein stability index (pdr5∆) | protein stability index (ubr1∆) | protein stability index (san1∆) |
| --- | --- | --- | --- | --- |
| WYIEKVIRIPMQENDKI [CSI1] | 3.05 ± 0.14 | 2.78 ± 0.1 | 3.02 ± 0.14 | – |
| ELDAQTLPGDDELDQEI [RPT5] | 3.32 ± 0.097 | 3.26 ± 0.12 | 3.59 ± 0.094 | 3.44 ± 0.083 |
| LQKEFLPHITQLEGFES [RPB2] | 1.9 ± 0.047 | 1.84 ± 0.041 | 1.55 ± 0.025 | 1.69 ± 0.053 |
| ENYSAMIFETIVDGKLK [FAS1] | – | 3.24 ± 0.22 | 3.09 ± 0.16 | 2.98 ± 0.13 |
| IRNINVQDALLTNQLYK [SNF2] | 2.84 ± 0.07 | 2.67 ± 0.064 | 3.24 ± 0.075 | 3.12 ± 0.05 |
| EHKQLVAEIVQNVISLG [RPC82] | 2.2 ± 0.067 | 1.46 ± 0.13 | 1.8 ± 0.1 | 2.16 ± 0.25 |
| LIELSGGQRSLIALSLI [SMC2] | 2.42 ± 0.078 | 2.29 ± 0.09 | 2.27 ± 0.035 | 1.86 ± 0.1 |
| YKQAMNETSEQLVPIRL [SNF5] | 3.23 ± 0.16 | 3.12 ± 0.15 | 3.43 ± 0.12 | 3.08 ± 0.22 |
| VVIDAFRLIDTGALINN [RPN11] | 1.27 ± 0.16 | 1.78 ± 0.17 | 1.11 ± 0.098 | – |
| VFVGSGKGTGKTAMAEL [BRR2] | 3.29 ± 0.12 | 3.54 ± 0.15 | 3.41 ± 0.098 | 3.44 ± 0.071 |
| VMYNGHTGKKLMAQIFF [RPB2] | – | 2.31 ± 0.16 | 1.27 ± 0.045 | 3.08 ± 0.14 |
| PALESSPVTGDNSPSED [SNF2] | 3.25 ± 0.067 | 3.29 ± 0.066 | 3.33 ± 0.041 | 3.14 ± 0.069 |
| DISGTMSGGGNHVAKGL [SMC4] | 3.19 ± 0.2 | – | – | 3.25 ± 0.13 |
| YDLMAPNGHISTKKIQV [YMR129W/POM152] | 2.15 ± 0.08 | 2.06 ± 0.07 | 1.94 ± 0.05 | 1.5 ± 0.085 |
| SELAVATTSVMMVNNQT [SRB6] | 3.12 ± 0.2 | – | – | – |
| VYPITLSTDATSADLKS [UBP6] | 2.32 ± 0.063 | 2.53 ± 0.063 | 2.4 ± 0.059 | 2.49 ± 0.078 |
| PHATATEKEPVPAVVDD [SNF6] | 3.24 ± 0.11 | 3.08 ± 0.068 | 3.18 ± 0.087 | 2.82 ± 0.14 |
| TSLTSIKWENAFVSVYS [PRP8] | 2.94 ± 0.07 | 2.62 ± 0.07 | 2.67 ± 0.038 | 3 ± 0.08 |
| INNPVNLTIHFGGEKGK [FAS1] | 2.97 ± 0.068 | 2.8 ± 0.097 | 3.25 ± 0.069 | 2.8 ± 0.07 |
| PKMQWSLQDNSAAINNE [RPN4] | 3.15 ± 0.063 | 3.2 ± 0.053 | 3.15 ± 0.041 | 2.96 ± 0.048 |
| LDPLTKDPVDFVRQAAM [RPN2] | 3.39 ± 0.12 | 3.53 ± 0.14 | 2.85 ± 0.25 | 3.17 ± 0.2 |
| RKHHKKGITEEVAKKRS [RPL24A] | 3.36 ± 0.12 | 3.45 ± 0.2 | 3.02 ± 0.092 | 3.19 ± 0.17 |
| EKVILVQEQLSKNRIIV [RET1] | 1.63 ± 0.087 | 1.38 ± 0.084 | 1.37 ± 0.052 | 1.5 ± 0.11 |
| FKKSKIDHINEESWEKV [SCL1] | 2.78 ± 0.062 | 3.05 ± 0.067 | 2.69 ± 0.039 | 2.84 ± 0.049 |
| DGLGNVVDFTSLPEELK [YMR129W/POM152] | 3.4 ± 0.096 | 3.47 ± 0.1 | 3.42 ± 0.095 | 3.3 ± 0.046 |
| TTDANGSKENYQELGSL [MED2] | 2.86 ± 0.097 | 3.09 ± 0.081 | 2.9 ± 0.075 | 3.15 ± 0.049 |
| LRPGQEISLKAHCILGI [RPC40] | 2.12 ± 0.14 | 2.49 ± 0.13 | 1.82 ± 0.12 | 2.14 ± 0.099 |

| Sequence | protein stability index (doa10∆) | protein stability index (pdr5∆) | protein stability index (ubr1∆) | protein stability index (san1∆) |
| --- | --- | --- | --- | --- |
| QLPVGFKNMGNTCYLNA [UBP6] | 2.16 ± 0.073 | 1.76 ± 0.079 | 1.6 ± 0.084 | 1.48 ± 0.12 |
| NFALTTLIDLVKHSPGA [ECM29] | 1.61 ± 0.11 | 1.79 ± 0.071 | 2.13 ± 0.062 | 1.49 ± 0.15 |
| GLFGNKPALGSLGSSST [YGR119C/NUP57] | 3.34 ± 0.089 | 2.63 ± 0.084 | 3.21 ± 0.18 | 2.77 ± 0.048 |
| HLLLGFQVSNVISLGPN [YJL039C/NUP192] | 1.37 ± 0.052 | 1.75 ± 0.049 | 1.8 ± 0.042 | 2.08 ± 0.088 |
| VKYMPEQKITEIEDGQD [RPO21] | 3.19 ± 0.12 | 3.12 ± 0.099 | 3.19 ± 0.069 | 2.98 ± 0.098 |
| QYEHLIKGIREYEEWQK [YDL116W/NUP84] | 3.11 ± 0.1 | 2.99 ± 0.079 | 2.62 ± 0.083 | 2.88 ± 0.13 |
| TYVEELFPIVKKHGKTD [YJL039C/NUP192] | 3.33 ± 0.14 | 3.44 ± 0.11 | 3.19 ± 0.091 | 3.32 ± 0.12 |
| EARAEAINLMGVKNNLL [RPO31] | 3.35 ± 0.22 | 1.96 ± 0.15 | 1.66 ± 0.24 | 1.84 ± 0.23 |
| LESIQKTKEAVAALKAV [RPL4A] | – | 3.37 ± 0.2 | 2.88 ± 0.17 | 2.82 ± 0.27 |
| SQVDPITLFVLVSVVEA [FAS2] | 1.44 ± 0.045 | 2.03 ± 0.069 | 1.45 ± 0.072 | 2.48 ± 0.077 |
| EEIEPKLEKLRNEKRMF [SMC2] | 2.89 ± 0.11 | 3.21 ± 0.074 | 3.21 ± 0.079 | 3.02 ± 0.1 |
| QQKANLLSSSNFEATKK [COR1] | 2.27 ± 0.069 | 2.5 ± 0.075 | 1.91 ± 0.05 | 2.1 ± 0.086 |
| SKKQRNNGSKDHGDGIL [RPN9] | 3.37 ± 0.13 | 2.85 ± 0.097 | 2.78 ± 0.053 | 3.27 ± 0.057 |
| TVQYVRFFWKRSTNKKS [UBP6] | 1.65 ± 0.054 | 1.35 ± 0.047 | 1.12 ± 0.04 | 1.2 ± 0.15 |
| EGRSFTKAIEDAKKEMK [YLR335W/NUP2] | 2.87 ± 0.066 | 2.7 ± 0.062 | 2.59 ± 0.081 | 2.83 ± 0.06 |
| SENHTESDAPPKSTAPI [YOR098C/NUP1] | 2.75 ± 0.058 | 2.24 ± 0.054 | 2.47 ± 0.06 | 2.51 ± 0.058 |
| QKVSQLESADKQLEKRD [POP4] | 3.26 ± 0.069 | 3.35 ± 0.083 | 3.35 ± 0.077 | 3.27 ± 0.07 |
| FLLKAYINVSRGTDIDR [SRB5] | – | – | 3.08 ± 0.22 | – |
| DLSGADIQAMCTEAGLL [RPT2] | 2.73 ± 0.12 | 3.48 ± 0.13 | 3.42 ± 0.062 | 3.46 ± 0.05 |
| TNRHTLALETVLIKMVK [SIR3] | 2.84 ± 0.11 | 2.86 ± 0.072 | 2.88 ± 0.054 | 2.61 ± 0.069 |
| PTATPSPFRPLEKTSRI [YMR153W/NUP53] | 2.89 ± 0.1 | 2.51 ± 0.058 | 2.81 ± 0.054 | 2.57 ± 0.11 |
| NLSIDEVAVPDRVAKVL [RPO31] | 3.09 ± 0.076 | 3.05 ± 0.073 | 3.22 ± 0.045 | 3.11 ± 0.06 |
| LTTFANQVMMDRKIQGW [ARP7] | 2.69 ± 0.081 | 2.62 ± 0.059 | 2.65 ± 0.049 | 2.45 ± 0.076 |
| LRKLKKMNNKPERFMVF [RPC53] | 3.19 ± 0.099 | 3.35 ± 0.14 | 3.18 ± 0.14 | 3.03 ± 0.099 |
| GQVSMSQFNGSGNGSNP [PGD1] | 3.3 ± 0.11 | 3.3 ± 0.12 | 3.2 ± 0.068 | 2.93 ± 0.077 |
| WRKDAQGNYPTTSYIKE [DPB4] | 2.94 ± 0.092 | 2.88 ± 0.069 | 2.56 ± 0.064 | 2.92 ± 0.069 |
